Here are results for one substance from PMC5978004.

The target in the assay is human MALT1 (mammalian expression) (human) (UniProt Q9UDY8).
Sequence of UniProt Q9UDY8 (Q9UDY8 whole entry): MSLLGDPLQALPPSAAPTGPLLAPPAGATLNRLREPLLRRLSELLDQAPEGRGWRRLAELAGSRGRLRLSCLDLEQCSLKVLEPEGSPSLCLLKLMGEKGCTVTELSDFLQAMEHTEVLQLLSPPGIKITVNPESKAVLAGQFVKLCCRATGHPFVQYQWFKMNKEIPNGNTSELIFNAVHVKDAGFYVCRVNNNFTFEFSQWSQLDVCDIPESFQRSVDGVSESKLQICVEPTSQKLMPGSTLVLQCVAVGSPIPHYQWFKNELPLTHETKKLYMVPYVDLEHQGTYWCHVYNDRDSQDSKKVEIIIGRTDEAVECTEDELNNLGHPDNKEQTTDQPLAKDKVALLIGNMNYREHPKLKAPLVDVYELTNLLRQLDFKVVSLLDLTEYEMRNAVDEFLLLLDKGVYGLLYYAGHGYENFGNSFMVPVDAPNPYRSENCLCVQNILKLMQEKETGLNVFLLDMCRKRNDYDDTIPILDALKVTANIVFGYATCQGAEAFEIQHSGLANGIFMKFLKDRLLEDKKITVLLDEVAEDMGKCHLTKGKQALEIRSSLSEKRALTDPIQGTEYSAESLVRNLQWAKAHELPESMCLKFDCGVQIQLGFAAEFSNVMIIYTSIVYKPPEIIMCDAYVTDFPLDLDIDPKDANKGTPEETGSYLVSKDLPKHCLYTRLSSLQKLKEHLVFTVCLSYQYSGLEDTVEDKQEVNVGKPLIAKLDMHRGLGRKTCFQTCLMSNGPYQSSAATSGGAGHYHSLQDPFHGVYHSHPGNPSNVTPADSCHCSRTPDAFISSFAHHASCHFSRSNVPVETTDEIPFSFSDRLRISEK

“Nematostella vectensis Bcl10 (NvBcl10), E-tagged, in pCAGGS (natural protein)” registered a human MALT1-dependent NF-κB luciferase reporter induction in MALT1-deficient HEK293T cells with or without human MALT1 of 2.5 fold.
